In US20240368668A1, “SUBSTRATES AND BIOMARKERS OF ADAMTS7” (The Broad Institute, Inc., priority 2021, published 2024):
Square brackets hold non-standard residues; d marks the D form. Ends that are not written are not given here. deamidated = deamidated asparagine; Met(O) = CS(=O)CC[C@H](N)C(=O)O

Target: T1, mouse ADAMTS7 (Mus musculus, UniProt Q68SA9)
T1 construct: Full-length mouse Adamts7 1-1857 (Uniprot Q68SA9, WT or E373Q catalytic mutant); expressed in transfected cells; host or cells: Human Coronary Artery Smooth Muscle Cells (HCA-SMC, Lonza), adenovirus 50 MOI
T1 sequence (Q68SA9 221-1657): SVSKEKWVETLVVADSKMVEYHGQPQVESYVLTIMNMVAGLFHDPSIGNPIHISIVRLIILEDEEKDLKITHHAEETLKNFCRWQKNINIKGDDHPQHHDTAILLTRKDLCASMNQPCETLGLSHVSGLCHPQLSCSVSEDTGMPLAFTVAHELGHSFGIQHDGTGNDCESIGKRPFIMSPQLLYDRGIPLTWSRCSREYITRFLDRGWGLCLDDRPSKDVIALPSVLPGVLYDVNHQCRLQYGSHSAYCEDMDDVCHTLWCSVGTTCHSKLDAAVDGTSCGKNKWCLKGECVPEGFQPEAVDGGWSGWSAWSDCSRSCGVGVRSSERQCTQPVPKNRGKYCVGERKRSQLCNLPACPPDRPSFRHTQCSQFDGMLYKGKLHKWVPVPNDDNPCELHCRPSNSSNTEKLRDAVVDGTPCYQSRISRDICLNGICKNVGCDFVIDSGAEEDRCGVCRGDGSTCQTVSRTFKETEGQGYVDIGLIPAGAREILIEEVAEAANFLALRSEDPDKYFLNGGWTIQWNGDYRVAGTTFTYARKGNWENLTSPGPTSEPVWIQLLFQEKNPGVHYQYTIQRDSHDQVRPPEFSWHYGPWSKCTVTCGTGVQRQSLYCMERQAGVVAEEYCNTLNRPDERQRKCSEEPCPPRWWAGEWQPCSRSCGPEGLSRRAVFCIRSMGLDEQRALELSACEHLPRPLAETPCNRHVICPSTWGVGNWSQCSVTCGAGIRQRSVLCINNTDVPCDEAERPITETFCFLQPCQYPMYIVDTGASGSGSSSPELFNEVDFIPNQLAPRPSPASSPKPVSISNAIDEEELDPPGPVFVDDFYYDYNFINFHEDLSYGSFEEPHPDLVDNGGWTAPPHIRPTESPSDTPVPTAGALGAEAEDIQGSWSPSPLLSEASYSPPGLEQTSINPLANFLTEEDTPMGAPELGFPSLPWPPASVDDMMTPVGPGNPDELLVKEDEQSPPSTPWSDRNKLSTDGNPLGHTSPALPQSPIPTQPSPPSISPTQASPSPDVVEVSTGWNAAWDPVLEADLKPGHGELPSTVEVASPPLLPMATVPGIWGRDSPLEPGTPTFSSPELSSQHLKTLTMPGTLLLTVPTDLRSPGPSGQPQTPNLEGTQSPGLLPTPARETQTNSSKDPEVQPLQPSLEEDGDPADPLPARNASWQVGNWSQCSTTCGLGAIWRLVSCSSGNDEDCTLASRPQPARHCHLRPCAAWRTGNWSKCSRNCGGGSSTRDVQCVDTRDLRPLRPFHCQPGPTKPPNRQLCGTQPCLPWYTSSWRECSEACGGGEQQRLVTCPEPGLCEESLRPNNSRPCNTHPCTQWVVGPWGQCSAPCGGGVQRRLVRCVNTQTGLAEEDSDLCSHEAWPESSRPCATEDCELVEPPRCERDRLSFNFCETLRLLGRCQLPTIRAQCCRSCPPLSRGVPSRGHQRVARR
Test: TMT10 TAILS N-terminomics, SMC1 experiment (Ad-mADAMTS7 WT vs EQ vs Luc, technical replicates, trypsin digest)
Format: cell-based
Settings: TAILS neo-N-terminal peptide abundance; log fold change, Ad-mADAMTS7 WT over Luc
Method in brief: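 Full-length mouse ADAMTS7 (WT or E373Q mutant, C-terminal 3xFLAG) or luciferase was transduced via adenovirus, 50 MOI, into HCA-SMC (SMC1, SMC2) or HUVEC. SMC1: pooled media, technical triplicates 400 ug; SMC2: process triplicates 300 ug; HUVEC: process triplicates 200 ug, bFGF2 10 ng/ml.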

Row | Substance | logFC.mWT.over.Lux
1 | CDC37_43 (FQKEKEELDR; listed as Homo sapiens) | 1.75
2 | CDH11_467 (HQEAKVPVAIR; listed as Homo sapiens) | 2.02
3 | CLEC11A_50 (HLQEALGLPAGR; listed as Homo sapiens) | 1.08
4 | COL1A2_80 (QYDGKGVGLGPGPMGLMGPR; listed as Homo sapiens) | 2.55
5 | COL1A2_91 (GPMGLMGPR; listed as Homo sapiens) | 1.09
6 | COL1A2_113 (FQGPAGEPGEPGQTGPAGAR; listed as Homo sapiens) | 1.66
7 | COL1A2_270 (VGNAGPAGPAGPR; listed as Homo sapiens) | 3.51
8 | COL1A2_305 (LTGAKGAAGLPGVAGAPGLPGPR; listed as Homo sapiens) | 1.46
9 | COL1A2_389 (SAGPPGPPGLR; listed as Homo sapiens) | 1.12
10 | COL1A2_425 (ASGPAGVR; listed as Homo sapiens) | 1.17
11 | COL1A2_630 (VGTAGPSGPSGLPGER; listed as Homo sapiens) | 1.18
12 | COL1A2_681 (VGAPGPAGATGDR; listed as Homo sapiens) | 1.27
13 | COL1A2_731 (AAGQPGAKGER; listed as Homo sapiens) | 0.84
14 | COL1A2_866 (LLGAPGILGLPGSR; listed as Homo sapiens) | 3.48
15 | COL1A2_960 (AGAPGPHGPVGPAGKHGNR; listed as Homo sapiens) | 2.56
16 | COL1A2_1028 (LQGLPGIAGHHGDQGAPGSVGPAGPR; listed as Homo sapiens) | 1.51
17 | COL1A2_1037 (HHGDQGAPGSVGPAGPR; listed as Homo sapiens) | 2.30
18 | COL1A2_1127 (SLRPKDYEVDATLKSLNNQIETLLTPEGSR; listed as Homo sapiens) | 2.23
19 | COL4A2_71 (YNGPPGLQGFPGLQGR; listed as Homo sapiens) | 1.77
20 | COL4A2_172 (YALPKEER; listed as Homo sapiens) | 5.97
21 | COL5A1_544 (SQAQAILQQAR; listed as Homo sapiens) | 0.87
22 | COL8A1_90 (MKEIQPAPR; listed as Homo sapiens) | 1.10
23 | COL18A1_1505 (LQPPVVQLHDSNPYPR; listed as Homo sapiens) | 1.41
24 | ECM1_43 (YAAPPSPPLSR; listed as Homo sapiens) | 0.63
25 | LTBP2_1602 (EAGVHFR; listed as Homo sapiens) | 1.63
26 | MAN2A1_51 (LQEKIDHLER; listed as Homo sapiens) | 2.04

Row | Substance | logFC.mWT.over.Lux
27 | MAP1B_1065 (LTTPTKQLGAQSPGR; listed as Homo sapiens) | 1.11
28 | MAP4_815 (AVASTGPSSR; listed as Homo sapiens) | 1.29
29 | MAP4_816 (VASTGPSSR; listed as Homo sapiens) | 1.44
30 | MGAT4B_28 (LSGQKGDVVDVYQR; listed as Homo sapiens) | 1.43
31 | MMP1_24 (LETQEQDVDLVQKYLEKYYNLKN(deamidated)DGR; listed as Homo sapiens) | 2.23
32 | NID2_291 (HSSVPLGR; listed as Homo sapiens) | 3.96
33 | NID2_374 (VGGPDLKGQVEPWDER; listed as Homo sapiens) | 4.80
34 | NID2_467 (LEDNIGSNTEVFTYNAANKETCEHNHR; listed as Homo sapiens) | 2.58
35 | NID2_951 (YAYPGAR; listed as Homo sapiens) | 3.35
36 | NUCB1_228 (LKEVWEELDGLDPNR; listed as Homo sapiens) | 1.70
37 | NUCB1_317 (FLASTQR; listed as Homo sapiens) | 4.76
38 | NUCB1_389 (LQQAVLHMEQR; listed as Homo sapiens) | 2.25
39 | OS9_54 ([code q]SQSSDVVIVSSKYKQR; also: modified N-terminal Gln; listed as Homo sapiens) | 2.67
40 | OS9_55 (SQSSDVVIVSSKYKQR; listed as Homo sapiens) | 2.23
41 | PAPPA_41 (AAGPATCATR; listed as Homo sapiens) | 3.83
42 | PDLIM4_104 (IDPEIQDGSPTTSR; listed as Homo sapiens) | 1.00
43 | POLR3G_88 (LFCSHWSHIPGFK; listed as Homo sapiens) | 1.51
44 | POSTN_413 (FSDDTLSMDQR; listed as Homo sapiens) | 2.29
45 | POSTN_754 (IITGPEIKYTR; listed as Homo sapiens) | 1.77
46 | POSTN_790 (FIEGGDGHLFEDEEIKR; listed as Homo sapiens) | 0.87
47 | POSTN_807 (LLQGDTPVR; listed as Homo sapiens) | 1.10
48 | PPP1R18_295 (LSETLTR; listed as Homo sapiens) | 3.60
49 | PSAP_171 (F[Met(O)]ANIPLLLYPQDGPR; listed as Homo sapiens) | 1.13
50 | PXDN_1341 (SYQEDKPTKKTR; listed as Homo sapiens) | 6.62
51 | PXDN_1393 (QKTITDLR; listed as Homo sapiens) | 4.88
